Where two headings read alike, the source gives them in different places. *1 amine or outer side, *2 acyl side, *3 side chain or, on linkers, in order; H or OH if unused. Where no end group is shown, it is not given here. [ ]: non-standard residue; d: D form. Leu(4-F) = γ-19F-leucine (4-fluoro-leucine), CC(C)(F)C[C@H](N[*:1])C(=O)[*:2]; Phe(4-F) = N[C@@H](Cc1ccc(F)cc1)C(=O)O
B1: γ-19F-Leu18 labeled ETM (transmembrane domain of the SARS-CoV-2 envelope protein, residues 8-38) (peptide)
peptide: Ac-ETGTLIVNSV[Leu(4-F)]LFLAFVVFLLVTLAILTALR-NH2
SMILES: CC[C@H](C)[C@H](NC(=O)[C@H](C)NC(=O)[C@H](CC(C)C)NC(=O)[C@@H](NC(=O)[C@@H](NC(=O)[C@H](CC(C)C)NC(=O)[C@H](CC(C)C)NC(=O)[C@H](Cc1ccccc1)NC(=O)[C@@H](NC(=O)[C@@H](NC(=O)[C@H](Cc1ccccc1)NC(=O)[C@H](C)NC(=O)[C@H](CC(C)C)NC(=O)[C@H](Cc1ccccc1)NC(=O)[C@H](CC(C)C)NC(=O)[C@H](CC(C)(C)F)NC(=O)[C@@H](NC(=O)[C@H](CO)NC(=O)[C@H](CC(N)=O)NC(=O)[C@@H](NC(=O)[C@@H](NC(=O)[C@H](CC(C)C)NC(=O)[C@@H](NC(=O)CNC(=O)[C@@H](NC(=O)[C@H](CCC(=O)O)NC(C)=O)[C@@H](C)O)[C@@H](C)O)[C@@H](C)CC)C(C)C)C(C)C)C(C)C)C(C)C)C(C)C)[C@@H](C)O)C(=O)N[C@@H](CC(C)C)C(=O)N[C@H](C(=O)N[C@@H](C)C(=O)N[C@@H](CC(C)C)C(=O)N[C@@H](CCCNC(=N)N)C(N)=O)[C@@H](C)O
B2: 4-19F-Phe20 labeled ETM (transmembrane domain of the SARS-CoV-2 envelope protein) (peptide)
peptide: ETGTLIVNSVLL[Phe(4-F)]LAFVVFLLVTLAILTALR
B3: 4-19F-Phe23 labeled ETM (transmembrane domain of the SARS-CoV-2 envelope protein, residues 8-38) (peptide)
peptide: ETGTLIVNSVLLFLA[Phe(4-F)]VVFLLVTLAILTALR-NH2
modifications: N-terminus assumed
SMILES: CC[C@H](C)[C@H](NC(=O)[C@H](C)NC(=O)[C@H](CC(C)C)NC(=O)[C@@H](NC(=O)[C@@H](NC(=O)[C@H](CC(C)C)NC(=O)[C@H](CC(C)C)NC(=O)[C@H](Cc1ccccc1)NC(=O)[C@@H](NC(=O)[C@@H](NC(=O)[C@H](Cc1ccc(F)cc1)NC(=O)[C@H](C)NC(=O)[C@H](CC(C)C)NC(=O)[C@H](Cc1ccccc1)NC(=O)[C@H](CC(C)C)NC(=O)[C@H](CC(C)C)NC(=O)[C@@H](NC(=O)[C@H](CO)NC(=O)[C@H](CC(N)=O)NC(=O)[C@@H](NC(=O)[C@@H](NC(=O)[C@H](CC(C)C)NC(=O)[C@@H](NC(=O)CNC(=O)[C@@H](NC(=O)[C@@H](N)CCC(=O)O)[C@@H](C)O)[C@@H](C)O)[C@@H](C)CC)C(C)C)C(C)C)C(C)C)C(C)C)C(C)C)[C@@H](C)O)C(=O)N[C@@H](CC(C)C)C(=O)N[C@H](C(=O)N[C@@H](C)C(=O)N[C@@H](CC(C)C)C(=O)N[C@@H](CCCNC(=N)N)C(N)=O)[C@@H](C)O

Assays:
[1] = target: the molecule itself; test: 19F solid-state NMR CODEX
[2] = target: the molecule itself; test: 19F solid-state NMR CODEX; remark: listed apart in the source

| Protein | stoichiometry N [1] | stoichiometry N [2] |
| --- | --- | --- |
| B1 | 5 | – |
| B2 | – | 5 |
| B3 | 5 | – |

From article PMC9583936 (Biochemistry, 2022)
